Reference: patent US10501502B2, “Allophycocyanin alpha-subunit evolved labeling proteins (smURFPs)” (The Regents of the University of California, priority 2016, dated 2019)
Numbering of substitutions follows the chain as printed.

B1: R3-2 + PCB: evolved APCα FP, SEQ ID NO: 4, with PCB (protein)
chain: MKTGEQRVKIATLLSENEKKIVDKASQDLWRRRPDFIAPGGIAFGQRERALCLRDYGWYLRLITFCLLAGDKDPIESIGLIGIREMYNSLGVPVPGMMESIRCLKEASLSLLDEEDAKETAPYFDYIIQAMS
modifications: phycocyanobilin chromophore; smRUFP Variant Polypeptide
B2: R7-7: evolved APCα FP, SEQ ID NO: 8, with BV (protein)
chain: B1 chain with G4C, E18K, R33H, F36L, G45S, R61H, D73G, Q129K, M131I
modifications: biliverdin chromophore; smRUFP Variant Polypeptide
B3: R4-1: evolved APCα FP, SEQ ID NO: 5, with BV (protein)
chain: B1 chain with G45S, G57R, R61H, Q129K
modifications: biliverdin chromophore; smRUFP Variant Polypeptide
B4: R8-9: evolved APCα FP, SEQ ID NO: 10, with BV (protein)
chain: B1 chain with G4C, K9N, E18K, F36L, G45S, E48D, R61H, D73G, G96D, Q129K
modifications: biliverdin chromophore; smRUFP Variant Polypeptide
B5: R8-8: evolved APCα FP, SEQ ID NO: 9, with BV (protein)
chain: MKTCEQRVKIATLLSENKKKIVDKASQDLWRRHPDLIAPGGIAFSQRDRALCLRDYGWYLHLITFCLLAGDKGPIESIGLIGIREMYNSLGVPVPAMMESIRCLKEASLSLLDEEDANETAPYFDYIIKAMS
modifications: biliverdin chromophore; smRUFP Variant Polypeptide
B6: R10-10: evolved APCα FP, SEQ ID NO: 11, with BV (protein)
chain: B5 chain with K9N, S15T
modifications: biliverdin chromophore; smRUFP Variant Polypeptide
B7: R11-2: evolved APCα FP, SEQ ID NO: 12, with BV (protein)
chain: B5 chain with K9N, S15T, G82S, D113E
modifications: biliverdin chromophore; smRUFP Variant Polypeptide

How the values were obtained:
[1] = In vitro photobleaching of bubbles of purified FP or Cy5 in mineral oil; assay type: physicochemical
Procedure: (§1) EX and EM spectra were obtained using SPEX Fluorolog fluorometer (Horiba). Absorbance spectra were obtained using UV-VIS Spectrophotometer Cary Eclipse (Varian) or UV-2700 (Shimadzu). Quantum yield was determined relative to Cy5. Incorporation rates of BV on 0.5 μM smURFP was performed by addition of smURFP to PBS alone or with 20% fetal bovine serum (FBS) and mixed by pipetting in a quartz cuvette. Chromophore was added last, mixed by pipetting, and fluorescence was recorded using SPEX Fluorolog fluorometer (Horiba). Photobleaching was characterized on bubbles of purified FP or Cy5 within mineral oil using light from a 150 W xenon arc lamp with 100% light through EX/EM=628(40)/680(30) nm for smURFP, TDsmURFP, and Cy5 or EX/EM=665 (45)/725 (50) nm for IFP 1.4 focused with a 40×, 1.2 numerical aperture C-Apochromat oil-immersion lens on a Zeiss Axiovert 200M inverted microscope. Photobleaching times were normalized to reflect an initial illumination intensity producing 1,000 photons per fluorescent molecule per second as previously described^37.

[2] = FP purification and fluorescence characterization in vitro (spectra, extinction coefficient, quantum yield); assay type: physicochemical
Procedure: FP genes were expressed on a pBAD vector (Life Technologies) with a polyhistidine tag on the C terminus, cells were lysed with B-PER (Thermo Scientific), and purified using Ni-NTA (Qiagen) puri-fication. PCB (HO-1+PcyA) and BV (HO-1) incorporation in Escherichia coli was performed simultaneously during constitu-tively active FP expression. Extinction coefficient was determined by PCB or BV absorbance as described35,36 (Table 3, smURFP+BV and TDsmURFP+BV, and Table 2) or calculated for the apoproteins by determining the protein concentration by the BCA protein assay (Pierce), and a specific chromo-phore concentration was added (specified in the Purification of FP lacking chromophore and in vitro chromophore incorporation section) to get 1 and 2 chromophore species (Table 5, not including (Escherichia coli)). When FP chromophore (PCB or BV) was expressed in Escherichia coli, the PCB and BV Q band had absorbance that overlapped with detection of BCA or Bradford assay of 562 nm and 592 nm, respectively. We used the previously published protocols35,36, where there was no change of the BV absorbance at 390 nm when free in solution or attached to the FP. smURFP+BV denaturation with 1 M urea caused no change in the BV absorbance at 390 nm, but the Q band was reduced ˜20-fold. Therefore, the extinction coefficient of BV at 390 nm was used to calculate the concentration of holoprotein (FP+PCB or BV) concentration.
as §1
HO-1 was removed by digesting the pBAD vector (Life Technology) with MscI and PmeI (NEB). smURFP and TDsmURFP were expressed and purified as described above. No chromophore was present on smURFP and TDsmURFP (confirmed by UV, fluorescence imaging, and MS). For predominant fluorescent species+2 chromophores, a ten-fold excess of chromophore was added to smURFP and TDsmURFP. For predominant fluorescent species+1 chromophore, a quarter concentration of chromophore was added to smURFP and TDsmURFP. Chromophore was added in PBS+10% FBS at 37° C. overnight. smURFP+chromophore and TDsmURFP+chromophore were purified using NiNTA (Qiagen) to remove excess or noncovalently attached chromophore.

[3] = system: Escherichia coli; assay: Fluorescence of FPs expressed in Escherichia coli; assay type: cell-based; settings: for fold brighter than R4-1: expressed in E. coli with HO-1
Procedure: TeAPCα gene (codons optimized for Escherichia coli) was made by GenScript. Mutations were placed by random mutagenesis using GeneMorphII Random Mutagenesis Kit (Agilent Technologies). Screens for mutants that fluoresce with PCB or BV were performed by subcloning into a pBAD vector (Life Technologies) that expressed cyanobacteria Synechocystis HO-1 and Synechocystis PcyA genes for PCB production and Synechocystis HO-1 only for BV production, as previously described^34. Libraries were expressed in TOP 10 Electrocompetent Escherichia coli cells (Life Technologies) with addition of 0.2% arabinose to LB agar plates (FPs were constitutively expressed in Escherichia coli). Fluorescence was imaged on plates using a BioSpectrum AC Imaging System (UVP) with EX/EM=628(40)/690(50) nm for FPs+PCB, EX/EM=685(40)/710LP nm for rounds 4 and 5 FPs+BV, and EX/EM=650(13)/690(50) nm for Cy5-like FPs+BV (rounds 6-12). At round 6, 5-10 of the brightest colonies on each plate were combined in LB+0.2% arabinose, grown ˜18 h, mixture of plasmid DNA was purified, and TOP10 cells were transformed and plated on LB agar plates+0.2% arabinose. Fluorescence was screened on plates (as described above), 10-20 of the brightest colonies were screened in liquid culture fluorescence (FIG. 7a-e), plasmid DNA was purified, and DNA was sequenced. The plasmid DNA of 2-3 of the brightest FPs was chosen for mutagenesis for the subsequent round. When choosing DNA for subsequent mutagenesis rounds, genes with increased and/or novel silent DNA mutations were chosen over other DNA that had the same DNA and/or protein sequence of the previous round. Site-specific mutagenesis was performed using QuikChange Lightning Mutagenesis Kit (Agilent Technologies) to create smURFP (C4S mutation) and smURFP C52S.

[4] = Native PAGE quaternary structure / stoichiometry; assay type: physicochemical
Procedure: Native PAGE was run using NativePAGE Novex Bis-Tris Gel System (Life Technologies) on Native PAGE 4-16% Bis-Tris protein gels (Life Technologies). SDS-denaturing PAGE was run using NuPAGE MOPS SDS running buffer (Life Technologies) and NuPAGE Novex 4-12% Bis-Tris gels (Life Technologies). Precision Plus Protein Dual Color Standards (Bio-Rad) were used as an MW ladder. Zinc blot was performed after running the SDS-PAGE gel using the described method^44. Fluorescence was imaged using a BioSpectrum AC Imaging System (UVP) with EX/EM=535(45)/605(70) nm for tdTomato, EX/EM=650(13)/690(50) nm for smURFP and TDsmURFP, EX/EM=685(40)/710LP nm for IFP1.4 and BV+zinc.

Row | Molecule | in vitro photobleaching t50% ([1]; excitation intensity yielding 1,000 photons per s) [s] | In vitro photostability t50% ([1]; time to bleach 50% from an initial emission rate of 1,000 photons per s) [s] | Emission Maximum ([2]; Table 5) [nm] | Excitation Maximum ([2]; Table 5) [nm] | Extinction Coefficient ([2]; Table 5) | Quantum Yield ([2]; Table 5) [%] | molecular brightness relative to eGFP ([2]; Table 5) [%] | fluorescence when expressed in E. coli (qualitative) [3] | extinction coefficient (EC) [2] | quantum yield (QY) [2] [%] | Molecular Brightnes Relative to smURFP ([2]; Table 4) [%] | Emission Maximum ([2]; evolved APCα FPs, Table 4) [nm] | Excitation Maximum ([2]; evolved APCα FPs, Table 4) [nm] | Extinction Coefficient ([2]; evolved APCα FPs, Table 4) | Quantum Yield ([2]; evolved APCα FPs, Table 4) [%] | fold brighter than R4-1 [3] [fold] | quaternary structure on native gel [4]
1 | Cy5 [reference compound] | 22 | 22 | 670 | 649 | 250,000 ^ m^−1cm^−1/chromophore | 25 | 186 |  |  |  |  |  |  |  |  |  | 
2 | B1 |  |  |  |  |  |  |  | lacked fluorescence with BV | 74,000 M^−1cm^−1 | 13 | 30 | 648 | 620 | 74,000 M^−1 cm^−1 | 13 |  | 
3 | B2 |  |  |  |  |  |  |  |  | 250,000 M^−1cm^−1 | 16 | 123 | 676 | 648 | 250,000 M^−1 cm^−1 | 16 | 1.3 | 
4 | B3 |  |  |  |  |  |  |  |  | 93,000 M^−1cm^−1 | 9.0 | 26 | 674 | 647 | 93,000 M^−1 cm^−1 | 9.0 |  | tetramer
5 | B4 |  |  |  |  |  |  |  |  | 175,000 M^−1cm^−1 | 12 | 65 | 672 | 644 | 175,000 M^−1 cm^−1 | 12 | 5.7 | 
6 | B5 |  |  |  |  |  |  |  |  | 260,000 M^−1cm^−1 | 13 | 104 | 672 | 648 | 260,000 M^−1 cm^−1 | 13 | 5.8 | 
7 | B6 |  |  |  |  |  |  |  |  | 200,000 M^−1cm^−1 | 15 | 93 | 672 | 646 | 200,000 M^−1 cm^−1 | 15 | 8.3 | homodimer
8 | B7 |  |  |  |  |  |  |  | slightly more fluorescent than R10-10 |  |  | 70 | 672 | 642 | 190,000 M^−1 cm^−1 | 12 |  | 
